# Data taken from US20090022714A1, “Combination methods of inhibiting tumor growth with a vascular endothelial growth factor receptor antagonist” (ImClone Systems, Inc., priority 2001, published 2009).
# Target: chimeric receptor mouse flk-1 (VEGFR-2)/human fms expressed on transfected 3T3 cells (C441) (mouse; human) (UniProt P35918)
# Test: cell-based or functional assay
# chimeric receptor mouse flk-1 (VEGFR-2)/human fms expressed on transfected 3T3 cells (C441) (mouse; human), sequence (P35918 other isoform, or with tags, fused parts or gaps mutant limits assumed): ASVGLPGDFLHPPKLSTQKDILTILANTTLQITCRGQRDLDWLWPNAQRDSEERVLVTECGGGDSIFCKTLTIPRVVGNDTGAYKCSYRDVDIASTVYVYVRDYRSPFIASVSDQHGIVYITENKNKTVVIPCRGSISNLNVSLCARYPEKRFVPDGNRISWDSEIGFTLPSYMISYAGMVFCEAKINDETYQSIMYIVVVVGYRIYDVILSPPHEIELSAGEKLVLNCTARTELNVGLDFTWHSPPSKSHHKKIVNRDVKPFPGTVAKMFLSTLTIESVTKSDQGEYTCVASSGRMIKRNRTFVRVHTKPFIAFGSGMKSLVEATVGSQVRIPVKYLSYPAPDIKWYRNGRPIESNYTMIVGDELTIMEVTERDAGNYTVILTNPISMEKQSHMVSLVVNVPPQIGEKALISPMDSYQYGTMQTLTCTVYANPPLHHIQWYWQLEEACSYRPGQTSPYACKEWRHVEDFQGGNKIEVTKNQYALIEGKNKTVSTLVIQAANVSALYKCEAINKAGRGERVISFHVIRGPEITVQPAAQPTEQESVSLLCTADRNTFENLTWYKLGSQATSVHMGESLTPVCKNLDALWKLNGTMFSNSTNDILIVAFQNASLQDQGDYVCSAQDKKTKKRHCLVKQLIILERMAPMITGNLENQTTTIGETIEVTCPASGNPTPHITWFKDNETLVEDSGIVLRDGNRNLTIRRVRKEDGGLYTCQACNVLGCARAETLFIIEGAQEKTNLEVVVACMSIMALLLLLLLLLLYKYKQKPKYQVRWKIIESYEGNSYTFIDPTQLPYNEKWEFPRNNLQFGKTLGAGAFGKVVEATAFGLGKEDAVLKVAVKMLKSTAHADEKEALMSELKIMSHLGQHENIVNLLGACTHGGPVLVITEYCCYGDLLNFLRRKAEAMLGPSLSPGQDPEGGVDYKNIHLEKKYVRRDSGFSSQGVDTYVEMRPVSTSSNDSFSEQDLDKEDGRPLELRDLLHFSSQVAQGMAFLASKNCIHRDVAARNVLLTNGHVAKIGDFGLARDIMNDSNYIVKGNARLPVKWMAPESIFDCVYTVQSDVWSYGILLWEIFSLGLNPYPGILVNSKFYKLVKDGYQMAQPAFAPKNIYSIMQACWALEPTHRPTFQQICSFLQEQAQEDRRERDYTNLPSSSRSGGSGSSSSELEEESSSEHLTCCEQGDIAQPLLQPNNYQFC
binder,measurement,value
"rat anti-mouse flk-1 (VEGFR-2) monoclonal antibody DC-101 (antibody, from another filing, rat IgG1, V domains shown) VH: EVQLVETGGGLVQPGNSLKLSCATSGFIFSTTWMNWIRQTPGKRLEWLAQIEDKSNNYFISYSESVKGRFTISRDDSKSSVYLQMNNLKEEDTAIYYCSWKYRSNYYFDYWGQGVMVTVSS VL: DIVLTQSPALAVSLEQRATISCKTSQNVDYYGISYLHWYQQKPGQQPKLLIYEGSNLASGIPARFSGSGSGTDFTLTIDPVEADDIVTYYCQQSKDYPYTFGAGTKLELKR",inhibition of receptor activation by ligand,< 1 µg/mL
same,"inhibition of receptor activation by ligand, prebound antibody",< 1 µg/mL
same,"phosphorylation level relative to the fully stimulated receptor control, antibody added with ligand (densitometry)",40%
same,"phosphorylation level relative to the fully stimulated receptor control, antibody prebound (densitometry)",6%
same,"phosphorylation of flk-1 (VEGFR-2), competitive antibody titration",> 0.5 µg/mL
